Experimental data taken from PMC6232856.

Target: rabbit skeletal muscle actin, polymerised (F-actin) (rabbit) (UniProt P68135)
Test: co-sedimentation

Chain of human espin 3A with the USH1M variant p.790_795delRRDLLR, N-terminally 6xHis-tagged (natural protein) (B1AK53 whole entry, stated change not applied): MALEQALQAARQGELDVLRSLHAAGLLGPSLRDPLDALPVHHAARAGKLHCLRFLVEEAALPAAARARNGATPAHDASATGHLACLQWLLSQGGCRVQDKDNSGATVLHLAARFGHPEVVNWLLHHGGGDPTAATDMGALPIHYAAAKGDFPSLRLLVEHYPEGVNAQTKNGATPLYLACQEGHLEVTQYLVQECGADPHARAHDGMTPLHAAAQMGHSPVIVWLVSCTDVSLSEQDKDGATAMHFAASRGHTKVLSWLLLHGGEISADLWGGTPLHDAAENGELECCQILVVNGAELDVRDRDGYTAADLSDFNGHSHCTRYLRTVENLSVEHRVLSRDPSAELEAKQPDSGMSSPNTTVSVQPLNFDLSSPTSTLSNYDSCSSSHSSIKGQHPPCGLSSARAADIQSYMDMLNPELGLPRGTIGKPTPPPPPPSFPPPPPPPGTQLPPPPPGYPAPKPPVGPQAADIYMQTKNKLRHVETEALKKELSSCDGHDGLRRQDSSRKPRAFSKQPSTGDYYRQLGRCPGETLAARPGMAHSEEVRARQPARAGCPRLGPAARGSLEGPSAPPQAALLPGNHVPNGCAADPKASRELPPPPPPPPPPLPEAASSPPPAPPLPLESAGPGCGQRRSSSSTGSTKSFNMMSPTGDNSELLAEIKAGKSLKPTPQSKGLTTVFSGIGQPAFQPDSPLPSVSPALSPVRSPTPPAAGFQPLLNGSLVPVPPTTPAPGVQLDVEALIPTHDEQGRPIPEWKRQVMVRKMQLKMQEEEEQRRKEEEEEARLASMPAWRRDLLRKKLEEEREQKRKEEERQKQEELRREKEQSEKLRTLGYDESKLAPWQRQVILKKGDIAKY

| percent of espin cosedimented with F-actin [%] | Substance |
| --- | --- |
| 45 | human espin 3A, wild type, N-terminally 6xHis-tagged (natural protein) |
| 15 | human espin 3A with the USH1M variant p.790_795delRRDLLR, N-terminally 6xHis-tagged (natural protein) |
